Source: patent US20250092135A1 (NANJING LEADS BIOLABS, published 2025)

Biological target: T1, human GPRC5D protein (human, UniProt Q9NZD1 1-345)
T1 construct: NCI-H929 cells express it endogenously in the functional assays; also called HuGPRC5D; huGPRC5D
Test: flow cytometry, HEK293T-HuGPRC5D cells (sheet: 293T-huGPRC5D), PE anti-human IgG Fc secondary, MFI
Procedure: Whether the anti-GPRC5D humanized antibodies in the present invention could bind to the human GPRC5D protein stably expressed on the cell surface was determined by cell binding experiments. The HEK293T-HuGPRC5D cell line shown in Table 2 was subjected to enzymatic digestion to obtain a single cell suspension of the HEK293T-huGPRC5D cells. The single cell suspension was centrifuged at room temperature at 400×g, and then the medium was discarded. The cell pellet was washed once with PBS and then resuspended in the serially diluted anti-GPRC5D humanized antibodies and the murine chimeric antibody 29H12C9 (at an initial concentration of 166.67 nM, 4-fold gradient dilution, 8 concentration points in total), and the cells were incubated at 4° C. for 30 min. The cells were washed once with PBS, and then fluorescent secondary antibody R-PE-conjugated AffiniPure Goat Anti-Human IgG, Fcγ Fragment Specific (Jackson ImmunoResearch, Cat #109-116-098) diluted in a 1:200 ratio was added. The cells were incubated in the dark at 4° C. for 30 min. The cells were washed twice with PBS and then resuspended, and finally, two-channel fluorescence signals were detected using a Beckman Cytoflex flow cytometer.

T1 sequence (Q9NZD1 whole entry): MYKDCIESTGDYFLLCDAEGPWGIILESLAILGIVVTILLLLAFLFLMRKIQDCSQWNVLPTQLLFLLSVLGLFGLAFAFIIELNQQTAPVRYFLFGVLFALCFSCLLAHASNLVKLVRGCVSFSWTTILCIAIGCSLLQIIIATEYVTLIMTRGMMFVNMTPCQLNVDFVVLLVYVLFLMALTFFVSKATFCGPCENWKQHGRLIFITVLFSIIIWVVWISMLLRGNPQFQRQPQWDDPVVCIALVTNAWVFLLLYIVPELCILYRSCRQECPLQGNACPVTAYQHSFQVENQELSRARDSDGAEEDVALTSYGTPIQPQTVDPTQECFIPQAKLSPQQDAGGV

Binder	binding result
humanized anti-GPRC5D antibody 29H2 (antibody, human IgG1, kappa, V domains shown, Human IgG1 / kappa) VH: QVQLVQSGAEVKKPGASVKVSCKASGYTFTTHYMYWVRQAPGQGLEWMGGINPSNGATNFNEKFKTRVTLTVDKSTSTAYMELSSLRSEDTAVYYCTRVGGLSYTMDYWGQGTLVTVSS VL: not shown	binds
humanized anti-GPRC5D antibody 29H24 (antibody, human IgG1, kappa, V domains shown, Human IgG1 / kappa) VH: QVQLVQSGAEVKKPGASVKVSCKASGYTFTTHYMYWVKQAPGQGLEWIGGINPSNGATNFNEKFKTKATLTVDKSISTAYMELSRLRSDDTAVYYCTRVGGLSYTMDYWGQGTLVTVSS VL: not shown	binds
humanized anti-GPRC5D antibody 29H6 (antibody, human IgG1, kappa, V domains shown, Human IgG1 / kappa) VH: QVQLVQSGAEVKKPGASVKVSCKASGYTFTTHYMYWVRQAPGQGLEWIGGINPSNGATNFNEKFKTKATLTVDKSTSTAYMELSSLRSEDTAVYYCTRVGGLSYTMDYWGQGTLVTVSS VL: not shown	binds
humanized anti-GPRC5D antibody 29H21 (antibody, human IgG1, kappa, V domains shown, Human IgG1 / kappa) VH: QVQLVQSGAEVKKPGASVKVSCKASGYTFTTHYMYWVRQAPGQGLEWIGGINPSNGATNFNEKFKTRVTLTVDKSISTAYMELSRLRSDDTAVYYCTRVGGLSYTMDYWGQGTLVTVSS VL: not shown	binds
humanized anti-GPRC5D antibody 29H20 (antibody, human IgG1, kappa, V domains shown, Human IgG1 / kappa) VH: QVQLVQSGAEVKKPGASVKVSCKASGYTFTTHYMYWVRQAPGQGLEWIGGINPSNGATNFNEKFKTRVTLTVDKSISTAYMELSRLRSDDTAVYYCTRVGGLSYTMDYWGQGTLVTVSS VL: not shown	binds

Biological target: T1, human GPRC5D protein
Test: flow cytometry, HEK293T cells stably expressing human GPRC5D (sheet: 293T-huGPRC5D), PE anti-human IgG Fc secondary, MFI
Procedure: (2) Whether the anti-CD3/anti-GPRC5D bispecific antibodies in the present invention could bind to HEK293T cells stably expressing the human GPRC5D protein was determined by cell binding experiments. […] The plate was centrifuged at room temperature at 400×g, and then the supernatant was discarded. The cells were washed twice with PBS and centrifuged. The supernatant was discarded. The cell pellet was resuspended in fluorescent secondary antibody R-PE-conjugated AffiniPure Goat Anti-Human IgG, Fcγ Fragment Specific (Jackson ImmunoResearch, Cat #109-116-098) diluted in a 1:200 ratio. The cells were incubated in the dark at 4° C. for 30 min. The cells were washed twice with PBS, and 100 μL of PBS was added to each well to resuspend the cells. Fluorescence signals were detected using a Beckman Cytoflex flow cytometer.

Binder	EC50 (read off the curve)	binding result
anti-CD3/GPRC5D bispecific antibody Bi-29H6-1 (bispecific antibody) EPKSSDKTHTCPPCPAPEAAGGPSVFLFPPKPKDTLMISRTPEVTCVVVAVSHEDPEVKFNWYVDGVEVHNAKTKPREEQYNSTYRVVSVLTVLHQDWLNGKEYKCKVSNKALAAPIEKTISKAKGQPREPQVCTLPPSRDELTKNQVSLSCAVKGFYPSDIAVEWESNGQPENNYKTTPPVLDSDGSFFLVSKLTVDKSRWQQGNVFSCSVMHEALHNHYTQKSLSLSPGK heavy: not shown light: not shown	~6 nM	
anti-CD3/GPRC5D bispecific antibody Bi-29H6-3 (bispecific antibody) EPKSSDKTHTCPPCPAPEAAGGPSVFLFPPKPKDTLMISRTPEVTCVVVAVSHEDPEVKFNWYVDGVEVHNAKTKPREEQYNSTYRVVSVLTVLHQDWLNGKEYKCKVSNKALAAPIEKTISKAKGQPREPQVCTLPPSRDELTKNQVSLSCAVKGFYPSDIAVEWESNGQPENNYKTTPPVLDSDGSFFLVSKLTVDKSRWQQGNVFSCSVMHEALHNHYTQKSLSLSPGK heavy: not shown light: not shown	~10 nM	
anti-CD3/GPRC5D bispecific antibody Bi-29H6/23L2 (bispecific antibody, human IgG1, kappa, L234A L235A) heavy 1: QVQLVQSGAEVKKPGASVKVSCKASGYTFTTHYMYWVRQAPGQGLEWIGGINPSNGATNFNEKFKTKATLTVDKSTSTAYMELSSLRSEDTAVYYCTRVGGLSYTMDYWGQGTLVTVSSASTKGPSVFPLAPSSKSTSGGTAALGCLVKDYFPEPVTVSWNSGALTSGVHTFPAVLQSSGLYSLSSVVTVPSSSLGTQTYICNVNHKPSNTKVDKKVEPKSCDKTHTCPPCPAPEAAGGPSVFLFPPKPKDTLMISRTPEVTCVVVAVSHEDPEVKFNWYVDGVEVHNAKTKPREEQYNSTYRVVSVLTVLHQDWLNGKEYKCKVSNKALAAPIEKTISKAKGQPREPQVCTLPPSRDELTKNQVSLSCAVKGFYPSDIAVEWESNGQPENNYKTTPPVLDSDGSFFLVSKLTVDKSRWQQGNVFSCSVMHEALHNHYTQKSLSLSPGK heavy 2: not shown light: not shown	~3 nM	
anti-CD3/GPRC5D bispecific antibody Bi-29H6-2 (bispecific antibody, human IgG1, kappa, L234A L235A) heavy 1: QVQLVQSGAEVKKPGASVKVSCKASGYTFTTHYMYWVRQAPGQGLEWIGGINPSNGATNFNEKFKTKATLTVDKSTSTAYMELSSLRSEDTAVYYCTRVGGLSYTMDYWGQGTLVTVSSASTKGPSVFPLAPSSKSTSGGTAALGCLVKDYFPEPVTVSWNSGALTSGVHTFPAVLQSSGLYSLSSVVTVPSSSLGTQTYICNVNHKPSNTKVDKKVEPKSCDKTHTCPPCPAPEAAGGPSVFLFPPKPKDTLMISRTPEVTCVVVAVSHEDPEVKFNWYVDGVEVHNAKTKPREEQYNSTYRVVSVLTVLHQDWLNGKEYKCKVSNKALAAPIEKTISKAKGQPREPQVCTLPPSRDELTKNQVSLSCAVKGFYPSDIAVEWESNGQPENNYKTTPPVLDSDGSFFLVSKLTVDKSRWQQGNVFSCSVMHEALHNHYTQKSLSLSPGK heavy 2: not shown light: not shown	~2 nM	
anti-CD3/GPRC5D bispecific antibody Bi-29H6GE/23L2 (bispecific antibody, human IgG1, kappa, L234A L235A) heavy 1: QVQLVQSGAEVKKPGASVKVSCKASGYTFTTHYMYWVRQAPGQGLEWIGGINPSNEATNFNEKFKTKATLTVDKSTSTAYMELSSLRSEDTAVYYCTRVGGLSYTMDYWGQGTLVTVSSASTKGPSVFPLAPSSKSTSGGTAALGCLVKDYFPEPVTVSWNSGALTSGVHTFPAVLQSSGLYSLSSVVTVPSSSLGTQTYICNVNHKPSNTKVDKKVEPKSCDKTHTCPPCPAPEAAGGPSVFLFPPKPKDTLMISRTPEVTCVVVAVSHEDPEVKFNWYVDGVEVHNAKTKPREEQYNSTYRVVSVLTVLHQDWLNGKEYKCKVSNKALAAPIEKTISKAKGQPREPQVCTLPPSRDELTKNQVSLSCAVKGFYPSDIAVEWESNGQPENNYKTTPPVLDSDGSFFLVSKLTVDKSRWQQGNVFSCSVMHEALHNHYTQKSLSLSPGK heavy 2: not shown light: not shown	~3 nM	
anti-CD3/GPRC5D bispecific antibody Bi-29H6-5 (bispecific antibody, human IgG1, kappa, L234A L235A) heavy 1: QVQLVQSGAEVKKPGASVKVSCKASGYTFTTHYMYWVRQAPGQGLEWIGGINPSSGATNFNEKFKTKATLTVDKSTSTAYMELSSLRSEDTAVYYCTRVGGLSYTMDYWGQGTLVTVSSASTKGPSVFPLAPSSKSTSGGTAALGCLVKDYFPEPVTVSWNSGALTSGVHTFPAVLQSSGLYSLSSVVTVPSSSLGTQTYICNVNHKPSNTKVDKKVEPKSCDKTHTCPPCPAPEAAGGPSVFLFPPKPKDTLMISRTPEVTCVVVAVSHEDPEVKFNWYVDGVEVHNAKTKPREEQYNSTYRVVSVLTVLHQDWLNGKEYKCKVSNKALAAPIEKTISKAKGQPREPQVCTLPPSRDELTKNQVSLSCAVKGFYPSDIAVEWESNGQPENNYKTTPPVLDSDGSFFLVSKLTVDKSRWQQGNVFSCSVMHEALHNHYTQKSLSLSPGK heavy 2: not shown light: not shown		binds
